In patent publication US20260201029A1:

Legend:
[1] = molecular target: cynomolgus FcγRI (cynomolgus); test: SPR, receptor captured by anti-his, antibody injected, 1:1 fit
[2] = molecular target: human FcγRIIIa 158F allele (human) (UniProt P08637); test: as above
[3] = molecular target: human FcγRI (human) (UniProt P12314); test: as above
[4] = molecular target: human FcγRIIIa 158V allele (human) (UniProt P08637); test: as above
[5] = molecular target: cynomolgus FcγRIII (cynomolgus) (UniProt Q8SPW2); test: as above
[6] = molecular target: cynomolgus FcγRIIb (cynomolgus); test: SPR, receptor captured by anti-his, antibody injected, steady-state fit
[7] = molecular target: human FcγRIIb/c (human) (UniProt P31994); test: as above
[8] = molecular target: human FcγRIIa (human) (UniProt P12318); test: as above
[9] = molecular target: cynomolgus FcγRIIa (cynomolgus); test: as above

human FcγRIIa (human), sequence (P12318 36-218 limits assumed): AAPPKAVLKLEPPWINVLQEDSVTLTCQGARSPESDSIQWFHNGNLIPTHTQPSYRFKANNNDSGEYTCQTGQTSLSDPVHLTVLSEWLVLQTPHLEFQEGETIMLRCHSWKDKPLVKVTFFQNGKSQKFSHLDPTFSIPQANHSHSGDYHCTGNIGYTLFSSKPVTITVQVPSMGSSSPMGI
human FcγRI (human), sequence (P12314 16-288 limits assumed): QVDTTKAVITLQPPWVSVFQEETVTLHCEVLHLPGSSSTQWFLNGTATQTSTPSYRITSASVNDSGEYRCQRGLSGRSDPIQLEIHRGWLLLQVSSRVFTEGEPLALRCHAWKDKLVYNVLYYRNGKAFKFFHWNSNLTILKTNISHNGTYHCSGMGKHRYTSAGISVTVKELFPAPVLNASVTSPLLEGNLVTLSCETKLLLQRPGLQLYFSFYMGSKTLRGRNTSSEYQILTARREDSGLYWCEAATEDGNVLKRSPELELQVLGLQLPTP
human FcγRIIb/c (human), sequence (P31994 46-217 limits assumed): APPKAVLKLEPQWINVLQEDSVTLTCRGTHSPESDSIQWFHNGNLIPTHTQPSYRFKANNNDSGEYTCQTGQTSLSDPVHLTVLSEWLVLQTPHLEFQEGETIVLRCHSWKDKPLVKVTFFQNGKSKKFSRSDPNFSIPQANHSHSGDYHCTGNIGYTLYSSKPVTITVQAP
human FcγRIIIa 158V allele (human), sequence (P08637 17-208 F176V limits assumed): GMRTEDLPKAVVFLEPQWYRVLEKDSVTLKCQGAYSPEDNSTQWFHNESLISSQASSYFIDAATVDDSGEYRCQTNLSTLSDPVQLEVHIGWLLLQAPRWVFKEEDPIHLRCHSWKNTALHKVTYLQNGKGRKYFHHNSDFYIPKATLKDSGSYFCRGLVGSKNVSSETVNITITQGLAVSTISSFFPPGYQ
human FcγRIIIa 158F allele (human), sequence (P08637 17-208 limits assumed): as the sequence (P08637 17-208 F176V limits assumed) above, with V160F counted along it
cynomolgus FcγRIII (cynomolgus), sequence (Q8SPW2 17-208 limits assumed): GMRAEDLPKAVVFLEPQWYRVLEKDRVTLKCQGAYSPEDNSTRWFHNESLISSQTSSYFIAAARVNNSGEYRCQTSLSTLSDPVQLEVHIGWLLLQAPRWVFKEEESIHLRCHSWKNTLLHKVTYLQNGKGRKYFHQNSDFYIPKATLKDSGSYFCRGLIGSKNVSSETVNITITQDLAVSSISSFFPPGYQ

wt IgG1 control (antibody)
Fold increase in binding (vs wt IgG1 control) [1]: 1 fold | Kd [1]: 0.0015 µM | Kd [2]: 3.78 µM | Fold increase in binding (vs wt IgG1 control) [3]: 1 fold | Kd [3]: 0.0029 µM | Kd [4]: 0.905 µM | Kd [5]: 0.395 µM | Fold increase in binding (vs wt IgG1 control) [6]: 1 fold | Kd [6]: 4.45 µM | Fold increase in binding (vs wt IgG1 control) [7]: 1 fold | Kd [7]: 11.2 µM | Fold increase in binding (vs wt IgG1 control) [8]: 1 fold | Kd [8]: 9.33 µM | Fold increase in binding (vs wt IgG1 control) [9]: 1 fold | Kd [9]: 8.15 µM
